From paper doi:10.1101/2024.08.09.607165

Tests used:
[1] = target: TraT encoded by pKpQIL (TraT_(pKpQIL)), mature protein C36-L258 (K. pneumoniae (plasmid pKpQIL)); assay: cryo-EM structure
[2] = target: TraT encoded by the F plasmid derivative pOX38 (TraTF), mature protein C21-L244 (E. coli (F plasmid, pOX38)); assay: cryo-EM structure

| stoichiometry N [2] | Substance | stoichiometry N [1] |
| --- | --- | --- |
|  | TraT encoded by pKpQIL (TraT_(pKpQIL)), mature protein C36-L258 (natural protein) | 10 |
| 10 | TraT encoded by the F plasmid derivative pOX38 (TraTF), mature protein C21-L244 (natural protein) |  |
